From the nanobody polyreactivity screen of Harvey et al. (2022)

Test: yeast display, Sf9 membrane polyspecificity reagent, FACS + sequencing; frameworks hold sequencing errors
Procedure, shortened: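 Genes from sorted yeast were amplified by colony PCR, read by MiSeq 2 × 250 sequencing and filtered on CDR length. These cells carried a synthetic nanobody library in Saccharomyces cerevisiae BJ5465 and were sorted by FACS into low and high (top ~1%) gates on anti-HA and streptavidin fluorescence. Polyreactivity is labelled according to the gate of origin.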

Sequence | polyreactivity (PSR sort gate)
QVQLVESGVGLVQAGGSLRLSCAASGIITFYNAMGWYRQAPGKERELVAAITWSGGSTYYADSVKGRFTISRDNAKNTVYVQLNSLKPEDTAVYYCAADVVSVVYLPFVNGGDYWGLGTQVTVSS | low polyreactivity
QVQLVESGVGLVQAGGSLRLSCAASGITFGRNTMGWYRQAPGKERELVAAIDSGGNTYADSVKGRFTISRDNAKNTVYLQMNSLRSEDTAVYYCNARETHQSRYGYWGQGTQVTVSS | low polyreactivity
QVQLVESGVGLVQAGGSLRLSCAASGITFIPYAMGWYRQAPGKERELVASISDGGGTNYADSVKGLFTISRDNAKNTVYLQKNSLNPEDTAVYYCATYASTYSYYGGDYWGQGTPVTVSS | low polyreactivity
QVQLVESGVGLVQAGGSLRLSCAASGITFSSYAMGWYRQAPGKERELVAAITRSGSTTYADSVKGRFTISRDNAKNTVYLQMNSLKPEDTAVYYCAVDYYYLTGGVDYWGQGTQVTVSS | low polyreactivity
QVQLVESGVGLVQAGGSLRLSCAASGITFTSYAMGWYRQAPVKERELVAAISSSGVRTYYADSVKGRFTISRDNSKNTVYLQMNSLKPEDTAVYYCATRRRVLYGYDYWGQGTQVTVSS | high polyreactivity
QVQLVESGVGLVQAGGSLRLSCAASGITFVDYGMGWYRQAPGKERELVSAISRSGGSTYYADSVKGRFTISRDNAKNTVYLQMNSLKPEDTAVYYCATVLSRVRNSDKYWGQVTQVTVSS | high polyreactivity
QVQLVESGVGLVQAGGSLRLSCAASGITFVGYAMGWSRQAPGKERELVASITRGGGSTYYADSVKGRFTISRDNAKNTVYLQMNSLKPEDTAVYYCAARSHSTYYYWGQGTQVTVSS | high polyreactivity
QVQLVESGVGLVQAGGSLRLSCAASGITISYYSKGWSRQEPGKEREFVAAISWSVGSTYYADSVKGRFTISRDNAKNTVYLQMNSLKPEDTAVYYCAAEDGYWPTYYYWGQGTQVTVSW | high polyreactivity
QVQLVESGVGLVQAGGSLRLSCAASGLIFASNSMGSYRQAPGKEREFVAAITSSGGSTYYADSVKGRFPISRDNAKNTVYLQMNSLKPEDTAVYYCAADLYGAWWYTYGRYYYWGQGTQVTVSS | low polyreactivity
QVQLVESGVGLVQAGGSLRLSCAASGLILRKYAKGWYSQAPGKEREFVAAITQTGSRTYYADSVKGRFTISRDNAKNTVYLQMNSLKPEDTAVYYCNAVNYRSSRDSGYWGQGTQVTVSS | high polyreactivity
QVQLVESGVGLVQAGGSLRLSCAASGLTFGWYAMGWYRQAPGKERELVASITRRSGSTYYADSVKGRFTISRDNAKNTVYLQMNSLKPEDTAVYYCAARSRGTTRFDFWGQGTQVTVSW | high polyreactivity
QVQLVESGVGLVQAGGSLRLSCAASGLTFLWYAMGWYRQAPGKERELVAAITSGGRTKYADSVKGRFTISRDNAKNTVYLQMNSLKPEDTAVYYCAAYTQWWGYDYWGQGTQVSVSS | high polyreactivity
QVQLVESGVGLVQAGGSLRLSCAASGLTFPWYTMGWNRQAPGKERELVAAINSRGGSTYYADSVKGRFTISRDNAKNTVYLQMNRLKPVDTAVYYCATRSFGRMDYWGQGTQVTVSS | high polyreactivity
QVQLVESGVGLVQAGGSLRLSCAASGRIFATNAMGWYRQAPGKERELVATITRSAGRTYYADSVKGRFTISRDNAKNTVYLQMNSLKPEDTAVYYCAASYWDTEPGYREYDYWGQGTQVTVSS | low polyreactivity
QVQLVESGVGLVQAGGSLRLSCAASGRIFERYAMGWYRQAPGKERELVAAIRSGGSTKYADSVKGRFTISRGNAKNTVYLQMNSLKPEDTAVYYCAAVIHYGDGYWGQGTQVTVSS | low polyreactivity
QVQLVESGVGLVQAGGSLRLSCAASGRIFFNNAMGWYIQAPGKERELVAGITSGSSTNYADSVKGRFTISRDNAKNTVYLQMNSLKPEDTAVYYCNAGDFERDVVVFIQHGGYYWGQGTQVTVSS | low polyreactivity
QVQLVESGVGLVQAGGSLRLSCAASGRIFGFYAMGWYRQAPGKESELVAAITVSGSSTRYADSVKGRFTISRDIAKNTFYLQMNSLKPEDTGVYYCAAFNRCSGGFDYWGQGTQVTVSS | high polyreactivity
QVQLVESGVGLVQAGGSLRLSCAASGRIFIDYAMGWYRQAPGKERELVATISESGGSTYYADSVKGRFTISRDNAKNTVYLQMNSLKPEDTAVYYCAVDDRYGTVYFYTKFDYWGQGTQVTVSS | low polyreactivity
QVQLVESGVGLVQAGGSLRLSCAASGRIFRPYAMGWYRQAPGKERELVAAITQSGGITSYADSVKGRFTISRDNAKNTVYLQMNSLKPEDTAVYYCATTSRYTRSHYDWYDYWGQGTQVTVSS | low polyreactivity
QVQLVESGVGLVQAGGSLRLSCAASGRIFRWYAMGWYRQAPGKERELVASITWNGGSTYYADSVKGRFTISRDNAKNTVYLQMNSLKPEDNAVYYCAVPFYRGPEMGYWGQGTQVTVSS | high polyreactivity
QVQLVESGVGLVQAGGSLRLSCAASGRIFYRNAMGWYRQAPGKERELVAAISYSGGRTYYADSVKGRFTISRDNAKNTVYLQMNSLKPEDTAVYYCAARYAWGYVDPGDYWGQGTQVTVSS | high polyreactivity
QVQLVESGVGLVQAGGSLRLSCAASGRTFAYYAMGWNRQAPWKERELVARITSDGSTYYADSVKGRFTISRDNAKNTVYLQMNSLIPEDTAVYYCNARWRYKWKYDHWGQGTQVTVSS | low polyreactivity

Sequence | polyreactivity (PSR sort gate)
QVQLVESGVGLVQAGGSLRLSCAASGRTFFGYAMGWYRQAPGKEREFVASISKRGGRTYYADSVKGRFTISRDNAKNSVYLQMNSLKPEDTAVYYCNAYESYPDPLTMEYWGQGTQVTVSS | high polyreactivity
QVQLVESGVGLVQAGGSLRLSCAASGRTFSYYAMGWSRQAPGKERELVAAITSSGGSTYYADSVKGRFTISRDNAKNTVYLQMNSLKPEDTAVYYCAAEIWYYLWTTFERKYDYWGQGTQVTVSS | low polyreactivity
QVQLVESGVGLVQAGGSLRLSCAASGRTFTPYAMGWYRQAPGKEREFVAAISIVGRTKYADSVKGRFTISRDNAKNTVYLQMNSLKPEDTAVYYCNAQDSRDRKFYWGYTRGHWGLGTQVTVSS | low polyreactivity
QVQLVESGVGLVQAGGSLRLSCAASGRTFVGNAMGWYRQAPGKERELVAAISVSGGSTYYADSVKGRFTISRDNAKNTVYVQMNSLKPEDTAGYYCAADGYYNRYGYRTSDESEYWGQGTQVTVTS | low polyreactivity
QVQLVESGVGLVQAGGSLRLSCAASGRTFVNNAMGWYRQAPGKERELVAAISQSGSRTYYADSVKRRFTISRDNAKNTVYLQMNSLKPEDTAVYYCAARGARYSTSDYWGQGTQVTVSS | high polyreactivity
QVQLVESGVGLVQAGGSLRLSCAASGRTFYVYAMGWYRQAPGKERELVAAISLGGGSTYYADSVKGRFTNSRDNGKNTVYLQMNSLKPEDTAVYYCAADITRYRLGRDYWGQATQVTVSS | low polyreactivity
QVQLVESGVGLVQAGGSLRLSCAASGRTSAQYGMGWYRQAPGKERELVATITTSGGRTYYADSVKGRFTISRDTAKNTVYLQMNSLKPEDTAVYYGAAEGWTTPTPTSDDNQWWYDYWGQGTQVTVSS | high polyreactivity
QVQLVESGVGLVQAGGSLRLSCAASGSIFASYTMGWYIQAPGKERELVAAINRSGGSTYYADSVKGRFTISRDNAKNTVYFQMNSLKPDDTAVYYCAAGYIRRYYGYDYWGQGTQVTVSS | high polyreactivity
QVQLVESGVGLVQAGGSLRLSCAASGSIFDINAMGWYRQAPGKERELVAVITDSGSTYYADSVKGRFTISRDNAKNTVYLQMNSLKPEDTAVYYCAAESSLLFFLMDYWGQGTQVTVSS | low polyreactivity
QVQLVESGVGLVQAGGSLRLSCAASGSIFGVNMGWYRQAPGKERELVASITSGGSTNYADSVKGRFTISRDNAKNTVYLQMNSLKPEDTAVYYCATDRYVWGQGTQVTVSS | low polyreactivity
QVQLVESGVGLVQAGGSLRLSCAASGSIFKYYAMGWYRQAPGKERELVAAISSNGGRTYYADSVKGRFTISRDNAKNTDYLQMNSLKPEDTAVYYCARRYRRTGESEYDYWGQGTQVTVSS | high polyreactivity
QVQLVESGVGLVQAGGSLRLSCAASGSIFQYNAMGWYRQAPGKERELVAAITSTGDTNYADSVKGRFTISRDNAKNTVYLQMNSLKAEDTAVYFCAADVYGTVRRVGWYYVGEGYDYWGQGTQVTVSS | low polyreactivity
QVQLVESGVGLVQAGGSLRLSCAASGSIFWQNTMGGYRPAPGKERELVATITSAGSTYYADSVKGRFTISRDNAKNTVSLQMNSLKPEDTAVYYGAKGHHPGHVFHPDYGYDYWGQGTQVTVSS | low polyreactivity
QVQLVESGVGLVQAGGSLRLSCAASGSIFYNYAMGWYRQAPGKEREFVAAISWSGDTTYYADSVKGRFTISRDNAKNTVYLQMNSLKPEDTAVYYCAAESYIWFWRPYYYWGQGTQVTLSS | low polyreactivity
QVQLVESGVGLVQAGGSLRLSCAASGSILDYYVMGWYRQAPGKDRELVAAIRGGGSTYYADSVKGRFTFSRDNEKNTVYLQMNSLKPEDTAVYYCAKDSQTARDFDYSGQGTQVTVSS | low polyreactivity
QVQLVESGVGLVQAGGSLRLSCAASGSILSKNAMAWYREAPGNERELVAAITWSGGSTYYADSVKGRFTISRDNEKNTVYLQMNSLKPEDTAVSYCAADLDWSPHFGLPYDYWGQGTQVTVSS | low polyreactivity
QVQLVESGVGLVQAGGSLRLSCAASGSTFDVYDMGWYRQAPGKERELVASISWDGDRTYYADSVKGRFTISRDNAKNTVYLQMKSLKPEDTAVYYCAATLRPYSSFPNRYGYWGQGTQVSVSS | low polyreactivity
QVQLVESGVGLVQAGGSLRLSCAASGSTFGGNAMGWYRQAPWKERELVADITFSGGSTSYAHSVKGSFTISRDNAKNTVYLLMNRLKPEDTAVYYCNRDYPEIIVAGLDFWGQGTQLTVSS | low polyreactivity
QVQLVESGVGLVQAGGSLRLSCAASGSTFITYAMGWYRQAPGKERELVAAISTGGSTYYADSVKGRFTISRDNAKNTVYLQMNSLKPEDTAVYYCNAYSSSRGSTLQYSLQYDYWGQGTQVTVSS | low polyreactivity
QVQLVESGVGLVQAGGSLRLSCAASGSTFLTNAMGWNRQAPGKERELVAAINWRGDSTYYADSVKGRFTISRDNAKNTVYLQMNSLKPEDTAVYYCAAKYNHVTDEYDYWGQGTQVTVSS | high polyreactivity
QVQLVESGVGLVQAGGSLRLSCAASGSTFQWYAMGWYIQAPGKERELVAAINKSGGTTYYADSVKGRFTISRDNAKNTVYLLMNSLKPEDTAVYYCATDTPVVYQPGNMDYWGQGTQVTVSS | low polyreactivity
